Values joined by “and” are separate entries in the source; they are usually repeats but may differ in a detail not shown here. Equal entries are not always repeated.
B1: NH2-terminal HA-tagged FLN-B(19–24) (domain or fragment, human, UniProt O75369-1 2009-2602, looked up)
chain: GRGLSEGRTFEMSDFIVDTRDAGYGGISLAVEGPSKVDIQTEDLEDGTCKVSYFPTVPGVYIVSTKFADEHVPGSPFTVKISGEGRVKESITRTSRAPSVATVGSICDLNLKIPEINSSDMSAHVTSPSGRVTEAEIVPMGKNSHCVRFVPQEMGVHTVSVKYRGQHVTGSPFQFTVGPLGEGGAHKVRAGGPGLERGEAGVPAEFSIWTREAGAGGLSIAVEGPSKAEITFDDHKNGSCGVSYIAQEPGNYEVSIKFNDEHIPESPYLVPVIAPSDDARRLTVMSLQESGLKVNQPASFAIRLNGAKGKIDAKVHSPSGAVEECHVSELEPDKYAVRFIPHENGVHTIDVKFNGSHVVGSPFKVRVGEPGQAGNPALVSAYGTGLEGGTTGIQSEFFINTTRAGPGTLSVTIEGPSKVKMDCQETPEGYKVMYTPMAPGNYLISVKYGGPNHIVGSPFKAKVTGQRLVSPGSANETSSILVESVTRSSTETCYSAIPKASSDASKVTSKGAGLSKAFVGQKSSFLVDCSKAGSNMLLIGVHGPTTPCEEVSMKHVGNQQYNVTYVVKERGDYVLAVKWGEEHIPGSPFHVTVP
B2: COOH-terminal GFP-tagged FLN-B(19–24) (domain or fragment, human, UniProt O75369-1 2009-2602, looked up)
chain: B1 chain

Legend:
[1] = target: integrin β1A cytoplasmic domain fused to the Gal4 DNA BD (human); test: two-hybrid
Chain of integrin β1A cytoplasmic domain fused to the Gal4 DNA BD (human) (P05556 21-798): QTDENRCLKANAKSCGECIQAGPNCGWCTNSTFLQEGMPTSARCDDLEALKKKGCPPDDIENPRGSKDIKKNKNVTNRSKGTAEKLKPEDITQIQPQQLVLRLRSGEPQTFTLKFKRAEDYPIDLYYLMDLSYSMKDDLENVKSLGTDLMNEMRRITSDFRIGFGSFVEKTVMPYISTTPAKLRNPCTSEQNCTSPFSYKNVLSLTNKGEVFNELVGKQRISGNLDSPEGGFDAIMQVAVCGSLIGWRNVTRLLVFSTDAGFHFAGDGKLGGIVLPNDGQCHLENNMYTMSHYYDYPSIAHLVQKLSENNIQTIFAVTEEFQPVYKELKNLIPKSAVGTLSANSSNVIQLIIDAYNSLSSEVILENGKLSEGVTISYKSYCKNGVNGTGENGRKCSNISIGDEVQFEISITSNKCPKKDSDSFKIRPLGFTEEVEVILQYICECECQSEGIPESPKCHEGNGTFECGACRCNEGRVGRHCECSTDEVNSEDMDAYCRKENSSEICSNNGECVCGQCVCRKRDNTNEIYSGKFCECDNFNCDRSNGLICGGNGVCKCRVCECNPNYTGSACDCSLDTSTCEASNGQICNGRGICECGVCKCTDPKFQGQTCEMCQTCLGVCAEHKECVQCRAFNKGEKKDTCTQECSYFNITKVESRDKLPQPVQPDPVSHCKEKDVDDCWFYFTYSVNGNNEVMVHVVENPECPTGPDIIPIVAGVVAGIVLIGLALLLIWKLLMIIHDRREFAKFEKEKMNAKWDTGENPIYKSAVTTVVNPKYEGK

[2] = target: the molecule itself; test: cross-linking

Molecule	fold binding (β-galactosidase activity) against wild-type filamin-B(19–24) [1]	stoichiometry N [2]
filamin-B_(var-1)(19–24), Gal4 AD fusion (domain or fragment)	2 fold and 3 fold	
B1		2
B2		2

Source: paper PMC2199218 (The Journal of Cell Biology, 2002)
